According to patent publication CN105542009A (UNIV NANCHANG, dated 2016):

Assays:
[1] = molecular target: T1, 前列腺特异性膜抗原 (PSMA) on LNCaP cells (UniProt Q04609 1-750, limits assumed); test: cell ELISA on fixed LNCaP (PSMA+) against MKN45 (PSMA-) cells, HRP-anti-M13 detection
T1 construct: whole, on cells; Endogenous PSMA on LNCaP cells; MKN45 cells (no PSMA) served as negative cells; also called prostate specific membrane antigen

[2] = molecular target: T2, PSMA胞外区蛋白 (重组表达的前列腺特异性膜抗原膜外区) (UniProt Q04609 44-750); test: indirect phage-ELISA, PSMA extracellular region coated at 5 μg/mL, HRP-anti-M13 detection
T2 construct: extracellular domain; also called PSMA蛋白; PSMA抗原; not shown: His tag from vector pRAG2a (purified by HisTrap, detected by anti-His antibody)
T2 sequence (Q04609 44-750): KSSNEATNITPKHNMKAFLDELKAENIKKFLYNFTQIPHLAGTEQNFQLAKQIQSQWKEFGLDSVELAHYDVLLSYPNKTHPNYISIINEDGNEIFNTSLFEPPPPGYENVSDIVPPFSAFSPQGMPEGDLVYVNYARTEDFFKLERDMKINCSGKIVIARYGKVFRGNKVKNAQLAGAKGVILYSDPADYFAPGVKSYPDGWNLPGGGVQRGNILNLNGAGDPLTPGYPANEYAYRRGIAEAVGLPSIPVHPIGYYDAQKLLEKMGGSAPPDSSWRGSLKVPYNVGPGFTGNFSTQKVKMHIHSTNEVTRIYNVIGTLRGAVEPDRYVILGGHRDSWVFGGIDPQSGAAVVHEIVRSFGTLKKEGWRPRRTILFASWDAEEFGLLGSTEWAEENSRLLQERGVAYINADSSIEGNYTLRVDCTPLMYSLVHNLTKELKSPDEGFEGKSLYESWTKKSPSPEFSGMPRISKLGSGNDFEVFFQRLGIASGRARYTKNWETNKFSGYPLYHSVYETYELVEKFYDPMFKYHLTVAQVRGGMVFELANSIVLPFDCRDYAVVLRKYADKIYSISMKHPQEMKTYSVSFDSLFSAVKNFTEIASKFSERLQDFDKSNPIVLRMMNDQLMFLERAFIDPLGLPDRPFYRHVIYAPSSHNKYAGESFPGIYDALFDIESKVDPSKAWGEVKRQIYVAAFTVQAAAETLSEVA

T1 sequence (Q04609 whole entry): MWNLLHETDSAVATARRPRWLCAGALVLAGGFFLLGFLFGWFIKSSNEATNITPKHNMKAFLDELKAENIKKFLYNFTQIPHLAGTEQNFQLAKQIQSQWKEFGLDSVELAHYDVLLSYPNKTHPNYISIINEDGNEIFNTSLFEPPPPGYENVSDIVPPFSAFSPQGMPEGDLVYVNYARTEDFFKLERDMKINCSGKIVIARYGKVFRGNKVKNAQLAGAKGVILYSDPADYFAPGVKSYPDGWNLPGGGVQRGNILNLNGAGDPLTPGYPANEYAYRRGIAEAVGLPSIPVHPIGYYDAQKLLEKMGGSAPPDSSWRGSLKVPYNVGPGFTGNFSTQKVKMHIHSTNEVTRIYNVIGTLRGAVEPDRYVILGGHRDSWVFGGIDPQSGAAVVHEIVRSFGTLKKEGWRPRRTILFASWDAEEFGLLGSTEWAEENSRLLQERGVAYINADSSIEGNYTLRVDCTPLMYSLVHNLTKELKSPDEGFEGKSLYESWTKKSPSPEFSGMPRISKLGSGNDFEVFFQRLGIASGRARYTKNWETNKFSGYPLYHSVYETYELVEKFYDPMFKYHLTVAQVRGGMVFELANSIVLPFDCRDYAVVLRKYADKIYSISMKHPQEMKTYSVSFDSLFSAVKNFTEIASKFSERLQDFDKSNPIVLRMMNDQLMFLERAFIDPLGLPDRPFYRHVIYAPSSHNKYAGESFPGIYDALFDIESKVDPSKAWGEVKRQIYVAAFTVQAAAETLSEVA

B1: 抗前列腺特异性膜抗原单域重链抗体噬菌体阳性克隆 (VHH)
VHH: QVQLVESGGGLVQAGGSLRLSCAASGRTFSRRDMGWFRQAPGKEREFVASISRSSAYTNYADSVKDRFTISRDNAKNTVYLQMYNLKPEDTAVYYCAAANYSTTRASAYRYWGQGTQVTVSS
notes: also called 针对前列腺特异性膜抗原的单域重链抗体阳性克隆; 展示本发明所述纳米抗体的噬菌体克隆; not shown: the phage coat protein fusion and any linker or tag are not described
B1: binds [1]; binds [2].
